The values that follow come from the supplement of paper PMC9112550, “Optimization of the antimicrobial peptide Bac7 by deep mutational scanning” (BMC Biology, 2022).
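Note: peptides expressed intracellularly from a pBAD plasmid library in pooled LB shake-flask culture, induced with 0.3% L-arabinose, DNA abundance read by NGS, three biological replicates, DESeq2 with apeglm shrinkage.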

This series concerns Escherichia coli TOP10. In words: shrunken log2 fold change of peptide-encoding DNA abundance (4.5 h post-induction vs induction); higher = less antimicrobial activity (less host growth inhibition). Conditions: time post-induction: 4.5 h; library: site-saturation at positions 5, 18, 19, 20.
As to RRIRARPPRLPRPRPRPEYGPRP, the “shrunken log2 fold change” value is 0.11.
The same measure for RRIRLRPPRLPRPRPRPCKMPRP: -0.503; for RRIRFRPPRLPRPRPRPQEYPRP: -0.541; for RRIRWRPPRLPRPRPRPPLHPRP: 0.417.
As for RRIRNRPPRLPRPRPRPRKGPRP, the “shrunken log2 fold change” value is -0.16.
The same measure for RRIRDRPPRLPRPRPRPMGNPRP: -0.107; for RRIRNRPPRLPRPRPRPLWTPRP: -0.247.
The same measure for RRIRDRPPRLPRPRPRPGQRPRP: 0.0563.
The same measure for RRIRWRPPRLPRPRPRPYNPPRP: -1.48; for RRIRLRPPRLPRPRPRPYWGPRP: -0.304.
On to RRIRWRPPRLPRPRPRPRYCPRP, for which the “shrunken log2 fold change” value was -0.139.
In the case of RRIRVRPPRLPRPRPRPIDMPRP, the “shrunken log2 fold change” value is -0.0698.
For RRIRRRPPRLPRPRPRPNFGPRP the value was 0.105; for RRIRIRPPRLPRPRPRPPCCPRP, -0.31.
For RRIRCRPPRLPRPRPRPTSRPRP the value was -0.0338; for RRIRERPPRLPRPRPRPIANPRP, 0.158; for RRIRARPPRLPRPRPRPIYAPRP, 0.144.
For RRIRIRPPRLPRPRPRPNQLPRP the value was -0.136.
Take RRIRDRPPRLPRPRPRPHKDPRP: the “shrunken log2 fold change” value is -0.239.
Take RRIRHRPPRLPRPRPRPRVDPRP: the “shrunken log2 fold change” value worked out at 0.0681.
The same measure for RRIRFRPPRLPRPRPRPHPKPRP: 0.827.
The same measure for RRIRLRPPRLPRPRPRPAQGPRP: 0.376; for RRIRPRPPRLPRPRPRPTWKPRP: -0.0108.
For RRIRSRPPRLPRPRPRPMPAPRP the value was 0.26; for RRIRYRPPRLPRPRPRPCCHPRP, -1.36; for RRIRRRPPRLPRPRPRPIRQPRP, 0.00198.
With RRIRWRPPRLPRPRPRPASLPRP, the “shrunken log2 fold change” value is 0.0313.
For the sequence RRIRKRPPRLPRPRPRPGTWPRP, the “shrunken log2 fold change” value came to 0.315.
For RRIRDRPPRLPRPRPRPGESPRP the value was -0.00997.
The same measure for RRIRCRPPRLPRPRPRPNGVPRP: -0.216.
For RRIRPRPPRLPRPRPRPKRKPRP the value was 0.238.
Turning to RRIRSRPPRLPRPRPRPMHLPRP, the “shrunken log2 fold change” value was -0.118.
The same measure for RRIRGRPPRLPRPRPRPVNAPRP: 0.719; for RRIRCRPPRLPRPRPRPEIVPRP: -0.221.
The same measure for RRIRYRPPRLPRPRPRPELPPRP: 0.0248.
With RRIRDRPPRLPRPRPRPEETPRP, the “shrunken log2 fold change” value was -0.00131.
In the case of RRIRLRPPRLPRPRPRPRRYPRP, the “shrunken log2 fold change” value was -0.00737.
Take RRIRRRPPRLPRPRPRPIMTPRP: the “shrunken log2 fold change” value was 0.125.
The same measure for RRIRIRPPRLPRPRPRPREGPRP: 0.229; for RRIRHRPPRLPRPRPRPPNWPRP: 0.494.
The same measure for RRIRVRPPRLPRPRPRPIAMPRP: -0.0565; for RRIRCRPPRLPRPRPRPGVLPRP: 0.121; for RRIRYRPPRLPRPRPRPTWRPRP: 0.104.
With RRIRSRPPRLPRPRPRPEQLPRP, the “shrunken log2 fold change” value is -0.0808.
For RRIRVRPPRLPRPRPRPVAAPRP the value was 0.368; for RRIRLRPPRLPRPRPRPVHLPRP, -0.0235.
The same measure for RRIRSRPPRLPRPRPRPEQNPRP: 0.274.
For RRIRRRPPRLPRPRPRPDMAPRP the value was 0.373.
Turning to RRIRIRPPRLPRPRPRPTSYPRP, the “shrunken log2 fold change” value was -0.261.
The same measure for RRIRDRPPRLPRPRPRPRLKPRP: 0.411.
The same measure for RRIRIRPPRLPRPRPRPWMAPRP: -0.547; for RRIRNRPPRLPRPRPRPTWPPRP: 0.77; for RRIRRRPPRLPRPRPRPGVTPRP: 0.303.
The same measure for RRIRQRPPRLPRPRPRPMNGPRP: -0.0825; for RRIRERPPRLPRPRPRPMQLPRP: 0.0995.
For RRIRRRPPRLPRPRPRPSKCPRP, the “shrunken log2 fold change” value was -0.47.
As for RRIRTRPPRLPRPRPRPMHIPRP, the “shrunken log2 fold change” value is -0.158.
The same measure for RRIRVRPPRLPRPRPRPTAIPRP: 0.12; for RRIRPRPPRLPRPRPRPHPSPRP: 0.000134; for RRIRGRPPRLPRPRPRPMWCPRP: 0.667.
For RRIRCRPPRLPRPRPRPKPAPRP, the “shrunken log2 fold change” value was found to be 0.288.
Take RRIRVRPPRLPRPRPRPWHCPRP: the “shrunken log2 fold change” value is -0.0339.
The same measure for RRIRQRPPRLPRPRPRPNHLPRP: -1.03.
With RRIRFRPPRLPRPRPRPVARPRP, the “shrunken log2 fold change” value turned out to be 0.0942.
With RRIRMRPPRLPRPRPRPTDGPRP, the “shrunken log2 fold change” value was -0.0062.
As to RRIRFRPPRLPRPRPRPATCPRP, the “shrunken log2 fold change” value was found to be 0.00724.
For RRIRCRPPRLPRPRPRPVQWPRP the value was 0.116.
As for RRIRMRPPRLPRPRPRPMMKPRP, the “shrunken log2 fold change” value stood at 0.0962.
For RRIRHRPPRLPRPRPRPMGQPRP the value was -0.239; for RRIRLRPPRLPRPRPRPMIFPRP, 0.0629; for RRIRPRPPRLPRPRPRPNMAPRP, 0.478.
Consider RRIRLRPPRLPRPRPRPGYSPRP, for which the “shrunken log2 fold change” value was -0.314.
For RRIRRRPPRLPRPRPRPAMCPRP the value was 0.319.
The same measure for RRIRQRPPRLPRPRPRPLHSPRP: -0.295; for RRIRWRPPRLPRPRPRPVMCPRP: -0.0922; for RRIRVRPPRLPRPRPRPVKYPRP: 0.228.
The same measure for RRIRRRPPRLPRPRPRPGARPRP: 0.507; for RRIRPRPPRLPRPRPRPMSIPRP: -0.211; for RRIRWRPPRLPRPRPRPPNMPRP: 0.0854.
As for RRIRNRPPRLPRPRPRPIVDPRP, the “shrunken log2 fold change” value is -0.139.
Take RRIRPRPPRLPRPRPRPQLSPRP: the “shrunken log2 fold change” value was -0.485.
As for RRIRNRPPRLPRPRPRPNVSPRP, the “shrunken log2 fold change” value was 0.0376.
The same measure for RRIRTRPPRLPRPRPRPFHPPRP: -0.335.
With RRIRWRPPRLPRPRPRPIFIPRP, the “shrunken log2 fold change” value was -0.592.
The same measure for RRIRHRPPRLPRPRPRPDPHPRP: 0.000754; for RRIRSRPPRLPRPRPRPDQAPRP: -0.107.
For RRIRRRPPRLPRPRPRPETAPRP the value was 0.658; for RRIRFRPPRLPRPRPRPKKAPRP, 0.173; for RRIRIRPPRLPRPRPRPMLGPRP, -0.146.
For RRIRCRPPRLPRPRPRPAGPPRP the value was 0.116; for RRIRKRPPRLPRPRPRPPHFPRP, 0.519; for RRIRPRPPRLPRPRPRPMRLPRP, 0.0536.
Turning to RRIRGRPPRLPRPRPRPSSGPRP, the “shrunken log2 fold change” value amounted to 0.0321.
RRIRIRPPRLPRPRPRPPINPRP: the “shrunken log2 fold change” value was -0.305.
The same measure for RRIRVRPPRLPRPRPRPARSPRP: -0.024.
For RRIRGRPPRLPRPRPRPKVKPRP the value was 0.547; for RRIRRRPPRLPRPRPRPVTRPRP, 0.169; for RRIRSRPPRLPRPRPRPPTYPRP, -0.243.
The same measure for RRIRRRPPRLPRPRPRPKRNPRP: 0.525; for RRIRCRPPRLPRPRPRPSNVPRP: -0.608.
In the case of RRIRERPPRLPRPRPRPKHIPRP, the “shrunken log2 fold change” value was -0.766.
Consider RRIRGRPPRLPRPRPRPRRHPRP, for which the “shrunken log2 fold change” value worked out at 0.612.
For RRIRLRPPRLPRPRPRPKWPPRP the value was 0.279; for RRIRTRPPRLPRPRPRPHYQPRP, -0.782.
As for RRIRCRPPRLPRPRPRPTNMPRP, the “shrunken log2 fold change” value is -0.47.
The same measure for RRIRVRPPRLPRPRPRPQNKPRP: -0.497.
For RRIRERPPRLPRPRPRPQYPPRP the value was -0.208; for RRIRERPPRLPRPRPRPDGFPRP, -0.134; for RRIRERPPRLPRPRPRPAWTPRP, 0.0563.
RRIRHRPPRLPRPRPRPQVAPRP: the “shrunken log2 fold change” value amounted to 0.0753.
In the case of RRIRLRPPRLPRPRPRPGPAPRP, the “shrunken log2 fold change” value amounted to 0.972.
For RRIRVRPPRLPRPRPRPMTYPRP the value was -0.494.
For RRIRYRPPRLPRPRPRPPLDPRP the value was 0.443.
Take RRIRKRPPRLPRPRPRPELYPRP: the “shrunken log2 fold change” value stood at 0.0137.
The same measure for RRIRERPPRLPRPRPRPDHNPRP: -0.897; for RRIRVRPPRLPRPRPRPELIPRP: 0.0562.
Regarding RRIRHRPPRLPRPRPRPCMMPRP, the “shrunken log2 fold change” value is -0.0344.
For the sequence RRIRSRPPRLPRPRPRPPWFPRP, the “shrunken log2 fold change” value is 0.238.
For RRIRNRPPRLPRPRPRPIDAPRP the value was 0.0153.
With RRIRDRPPRLPRPRPRPEFDPRP, the “shrunken log2 fold change” value stood at 0.375.
The same measure for RRIRERPPRLPRPRPRPAATPRP: 0.222; for RRIRNRPPRLPRPRPRPPERPRP: 0.537; for RRIRWRPPRLPRPRPRPQQRPRP: -0.102.
The same measure for RRIRCRPPRLPRPRPRPYTMPRP: -0.382; for RRIRHRPPRLPRPRPRPLNDPRP: 0.00159.
